Key:
[1] = molecular target: human PD-L1 (on cells or in tissue) (human) (UniProt Q9NZQ7); assay: IHC histoscore (0-300), FFPE tumor NSCLC sample 1080766B; 5H1 at 5 ug/ml
[2] = molecular target: human PD-L1 (on cells or in tissue) (human) (UniProt Q9NZQ7); assay: IHC histoscore (0-300), FFPE tumor Mel sample 1168657B; 5H1 at 5 ug/ml
[3] = molecular target: human PD-L1 (on cells or in tissue) (human) (UniProt Q9NZQ7); assay: IHC histoscore (0-300), FFPE tumor RCC sample 1167809B; 5H1 at 5 ug/ml
[4] = molecular target: human PD-L1 (on cells or in tissue) (human) (UniProt Q9NZQ7); assay: IHC histoscore (0-300), FFPE tumor Mel sample T980744; 5H1 at 5 ug/ml
[5] = molecular target: human PD-L1 (on cells or in tissue) (human) (UniProt Q9NZQ7); assay: IHC histoscore (0-300), FFPE tumor NSCLC sample 1080993B; 5H1 at 5 ug/ml
[6] = molecular target: human PD-L1 (on cells or in tissue) (human) (UniProt Q9NZQ7); assay: IHC histoscore (0-300), FFPE tumor NSCLC sample 1080754B; 5H1 at 5 ug/ml
[7] = molecular target: human PD-L1 (on cells or in tissue) (human) (UniProt Q9NZQ7); assay: IHC histoscore (0-300), FFPE tumor Mel sample T030668; 5H1 at 5 ug/ml
[8] = molecular target: human PD-L1 (on cells or in tissue) (human) (UniProt Q9NZQ7); assay: IHC histoscore (0-300), FFPE tumor RCC sample 1164619B; 5H1 at 5 ug/ml
[9] = molecular target: human PD-L1 (on cells or in tissue) (human) (UniProt Q9NZQ7); assay: IHC histoscore (0-300), FFPE tumor NSCLC sample 1080790; 5H1 at 5 ug/ml
[10] = molecular target: human PD-L1 (antigen of the surface plasmon resonance analysis) (human) (UniProt Q9NZQ7); assay: surface plasmon resonance; KD given for clone 28-8 alone
Sequence of human PD-L1 (antigen of the surface plasmon resonance analysis) (human) (Q9NZQ7 19-238 limits assumed): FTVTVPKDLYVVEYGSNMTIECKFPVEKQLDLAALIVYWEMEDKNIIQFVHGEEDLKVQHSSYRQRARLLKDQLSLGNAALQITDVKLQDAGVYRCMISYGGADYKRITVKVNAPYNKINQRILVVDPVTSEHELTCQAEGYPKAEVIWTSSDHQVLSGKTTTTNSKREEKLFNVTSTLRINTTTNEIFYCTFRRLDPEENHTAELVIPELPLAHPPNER

[11] = molecular target: human PD-L1 (on cells or in tissue) (human) (UniProt Q9NZQ7); assay: IHC histoscore (0-300), FFPE tumor NSCLC sample 1080754B; 28-8 at 2 ug/ml
[12] = molecular target: human PD-L1 (on cells or in tissue) (human) (UniProt Q9NZQ7); assay: IHC histoscore (0-300), FFPE tumor Mel sample T980747; 28-8 at 2 ug/ml
[13] = molecular target: human PD-L1 (on cells or in tissue) (human) (UniProt Q9NZQ7); assay: IHC histoscore (0-300), FFPE tumor Mel sample 1168657B; 28-8 at 2 ug/ml
[14] = molecular target: human PD-L1 (on cells or in tissue) (human) (UniProt Q9NZQ7); assay: IHC histoscore (0-300), FFPE tumor Mel sample T030668; 28-8 at 2 ug/ml
[15] = molecular target: human PD-L1 (on cells or in tissue) (human) (UniProt Q9NZQ7); assay: IHC histoscore (0-300), FFPE tumor NSCLC sample 1080993B; 28-8 at 2 ug/ml
[16] = molecular target: human PD-L1 (on cells or in tissue) (human) (UniProt Q9NZQ7); assay: IHC histoscore (0-300), FFPE tumor Mel sample T980744; 28-8 at 2 ug/ml
[17] = molecular target: human PD-L1 (on cells or in tissue) (human) (UniProt Q9NZQ7); assay: IHC histoscore (0-300), FFPE tumor NSCLC sample 1080766B; 28-8 at 2 ug/ml
[18] = molecular target: human PD-L1 (on cells or in tissue) (human) (UniProt Q9NZQ7); assay: IHC histoscore (0-300), FFPE tumor RCC sample 1164619B; 28-8 at 2 ug/ml
[19] = molecular target: human PD-L1 (on cells or in tissue) (human) (UniProt Q9NZQ7); assay: IHC histoscore (0-300), FFPE tumor NSCLC sample 1080790; 28-8 at 2 ug/ml
[20] = molecular target: human PD-L1 (on cells or in tissue) (human) (UniProt Q9NZQ7); assay: IHC histoscore (0-300), FFPE tumor RCC sample 1167809B; 28-8 at 2 ug/ml

Sequence of human PD-L1 (on cells or in tissue) (human) (Q9NZQ7 19-290): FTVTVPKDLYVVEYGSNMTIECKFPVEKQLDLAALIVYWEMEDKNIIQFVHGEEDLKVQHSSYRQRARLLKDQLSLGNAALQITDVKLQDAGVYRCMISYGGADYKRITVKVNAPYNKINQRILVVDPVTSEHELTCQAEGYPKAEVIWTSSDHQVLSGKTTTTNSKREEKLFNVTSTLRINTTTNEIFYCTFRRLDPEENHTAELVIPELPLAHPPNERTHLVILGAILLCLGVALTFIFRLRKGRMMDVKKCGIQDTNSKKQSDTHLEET

| Histoscore Average [1] | Histoscore Average [2] | Histoscore Average [3] | Histoscore Average [4] | Histoscore Average [5] | Histoscore Average [6] | Histoscore Average [7] | Histoscore Average [8] | Histoscore Average [9] | Kd [10] | Histoscore Average [11] | Histoscore Average [12] | Histoscore Average [13] | Histoscore Average [14] | Histoscore Average [15] | Histoscore Average [16] | Histoscore Average [17] | Histoscore Average [18] | Histoscore Average [19] | Histoscore Average [20] | Substance |
| --- | --- | --- | --- | --- | --- | --- | --- | --- | --- | --- | --- | --- | --- | --- | --- | --- | --- | --- | --- | --- |
| 103 | 0 | 108 | 98 | 12 | 245 | 98 | 4 | 40 |  |  |  |  |  |  |  |  |  |  |  | murine anti-human PD-L1 mAb 5H1 (antibody) |
|  |  |  |  |  |  |  |  |  | 0.1 nM | 261 | 9 | 0 | 113 | 16 | 123 | 130 | 4 | 37 | 125 | rabbit anti-human PD-L1 mAb 28-8 (antibody) |

— patent publication US20150125463A1
